Results taken from paper PMC8826748 (Nature, 2021).

Target: the molecule itself
Test: cryo-EM structure

B1: near-full-length human calcium-sensing receptor (CaSR, residues 20-894), Flag-tagged (receptor)
chain: AAAYGPDQRAQKKGDIILGGLFPIHFGVAAKDQDLKSRPESVECIRYNFRGFRWLQAMIFAIEEINSSPALLPNLTLGYRIFDTCNTVSKALEATLSFVAQNKIDSLNLDEFCNCSEHIPSTIAVVGATGSGVSTAVANLLGLFYIPQVSYASSSRLLSNKNQFKSFLRTIPNDEHQATAMADIIEYFRWNWVGTIAADDDYGRPGIEKFREEAEERDICIDFSELISQYSDEEEIQHVVEVIQNSTAKVIVVFSSGPDLEPLIKEIVRRNITGKIWLASEAWASSSLIAMPQYFHVVGGTIGFALKAGQIPGFREFLKKVHPRKSVHNGFAKEFWEETFNCHLQEGAKGPLPVDTFLRGHEESGDRFSNSSTAFRPLCTGDENISSVETPYIDYTHLRISYNVYLAVYSIAHALQDIYTCLPGRGLFTNGSCADIKKVEAWQVLKHLRHLNFTNNMGEQVTFDECGDLVGNYSIINWHLSPEDGSIVFKEVGYYNVYAKKGERLFINEEKILWSGFSREVPFSNCSRDCLAGTRKGIIEGEPTCCFECVECPDGEYSDETDASACNKCPDDFWSNENHTSCIAKEIEFLSWTEPFGIALTLFAVLGIFLTAFVLGVFIKFRNTPIVKATNRELSYLLLFSLLCCFSSSLFFIGEPQDWTCRLRQPAFGISFVLCISCILVKTNRVLLVFEAKIPTSFHRKWWGLNLQFLLVFLCTFMQIVICVIWLYTAPPSSYRNQELEDEIIFITCHEGSLMALGFLIGYTCLLAAICFFFAFKSRKLPENFNEAKFITFSMLIFFIVWISFIPAYASTYGKFVSAVEVIAILAASFGLLACIFFNKIYIILFKPSRNTIEEVRCSTAAHAFKVAARATLRRSNV
B1: binds.
